Target: purified rat skin collagen type I (rat) (UniProt P02454)
Assay: affinity chromatography

UniProt P02454, sequence (P02454 152-1207, chain 1 of 2): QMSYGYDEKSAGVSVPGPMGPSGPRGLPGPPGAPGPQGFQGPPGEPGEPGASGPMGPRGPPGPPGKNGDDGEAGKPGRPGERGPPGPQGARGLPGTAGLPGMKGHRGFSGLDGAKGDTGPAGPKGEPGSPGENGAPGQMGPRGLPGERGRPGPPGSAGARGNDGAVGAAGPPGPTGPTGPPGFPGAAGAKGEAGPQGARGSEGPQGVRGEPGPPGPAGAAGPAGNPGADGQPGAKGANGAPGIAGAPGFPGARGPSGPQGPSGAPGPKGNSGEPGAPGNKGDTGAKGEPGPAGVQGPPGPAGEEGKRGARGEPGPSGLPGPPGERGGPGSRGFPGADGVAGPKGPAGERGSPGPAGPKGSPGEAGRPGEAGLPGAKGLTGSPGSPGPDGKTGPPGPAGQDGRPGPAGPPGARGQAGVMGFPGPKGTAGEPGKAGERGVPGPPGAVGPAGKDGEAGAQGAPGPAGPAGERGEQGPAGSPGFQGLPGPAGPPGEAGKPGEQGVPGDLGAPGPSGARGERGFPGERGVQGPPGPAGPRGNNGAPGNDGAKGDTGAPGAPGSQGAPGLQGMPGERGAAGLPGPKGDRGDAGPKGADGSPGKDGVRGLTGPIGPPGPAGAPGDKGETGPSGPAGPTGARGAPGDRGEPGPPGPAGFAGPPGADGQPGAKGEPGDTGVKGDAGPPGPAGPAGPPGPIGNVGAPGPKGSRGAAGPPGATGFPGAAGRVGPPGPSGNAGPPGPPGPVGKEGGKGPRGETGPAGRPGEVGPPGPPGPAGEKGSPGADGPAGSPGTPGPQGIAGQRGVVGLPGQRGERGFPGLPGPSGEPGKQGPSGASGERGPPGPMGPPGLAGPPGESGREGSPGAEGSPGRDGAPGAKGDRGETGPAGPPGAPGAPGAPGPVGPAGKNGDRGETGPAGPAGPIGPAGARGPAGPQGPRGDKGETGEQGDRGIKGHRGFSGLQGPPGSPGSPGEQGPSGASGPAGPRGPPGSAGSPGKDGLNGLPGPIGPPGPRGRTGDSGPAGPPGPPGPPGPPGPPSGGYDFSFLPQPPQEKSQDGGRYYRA
UniProt P02454, sequence (P02466 86-1125, chain 2 of 2, further chain): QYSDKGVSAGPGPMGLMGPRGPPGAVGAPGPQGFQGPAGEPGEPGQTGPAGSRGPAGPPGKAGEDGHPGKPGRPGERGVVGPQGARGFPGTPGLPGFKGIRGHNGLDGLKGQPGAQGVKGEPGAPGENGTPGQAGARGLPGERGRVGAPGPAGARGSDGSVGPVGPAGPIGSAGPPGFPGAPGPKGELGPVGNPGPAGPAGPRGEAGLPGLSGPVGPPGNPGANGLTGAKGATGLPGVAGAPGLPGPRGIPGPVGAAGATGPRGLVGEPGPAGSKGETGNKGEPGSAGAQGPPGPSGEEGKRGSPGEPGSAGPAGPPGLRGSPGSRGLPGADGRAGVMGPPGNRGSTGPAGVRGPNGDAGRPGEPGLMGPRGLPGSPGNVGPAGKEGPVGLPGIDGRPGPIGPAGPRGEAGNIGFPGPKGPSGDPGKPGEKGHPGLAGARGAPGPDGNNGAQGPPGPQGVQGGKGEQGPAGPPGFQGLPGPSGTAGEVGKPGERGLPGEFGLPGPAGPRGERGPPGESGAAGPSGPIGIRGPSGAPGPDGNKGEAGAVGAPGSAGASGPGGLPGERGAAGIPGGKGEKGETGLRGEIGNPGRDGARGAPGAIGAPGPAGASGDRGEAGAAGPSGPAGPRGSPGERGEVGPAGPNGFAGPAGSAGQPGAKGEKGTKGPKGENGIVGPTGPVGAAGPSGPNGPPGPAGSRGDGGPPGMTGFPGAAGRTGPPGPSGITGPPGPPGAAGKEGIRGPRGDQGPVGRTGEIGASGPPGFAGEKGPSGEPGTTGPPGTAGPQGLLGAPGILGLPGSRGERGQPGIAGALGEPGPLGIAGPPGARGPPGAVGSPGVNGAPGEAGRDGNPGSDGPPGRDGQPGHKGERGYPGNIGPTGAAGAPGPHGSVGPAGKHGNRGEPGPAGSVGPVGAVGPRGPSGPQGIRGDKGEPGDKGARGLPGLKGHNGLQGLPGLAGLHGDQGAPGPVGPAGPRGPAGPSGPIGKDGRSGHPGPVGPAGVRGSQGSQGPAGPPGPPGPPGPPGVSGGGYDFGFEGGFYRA

- KBr concentration at which the bound fibronectin eluted: 1 M
Substance: human plasma fibronectin (natural protein)
